5 proteins from patent US7285703B2, “Plant like starches and the method of making them in hosts” (BASF Plant Science GmbH, priority 1998, dated 2007) can be followed below.

Substrate in data set [1]: Nc1ncnc2c1ncn2[C@@H]1O[C@H](COP(=O)(O)OP(=O)(O)O[C@H]2O[C@H](CO)[C@@H](O)[C@H](O)[C@H]2O)[C@@H](O)[C@H]1O
As to the kind of experiment: ADPGlc kinetics of starch synthase SSIIb-1. The data set is classed as biochemical, maize. The note with it: 37° C.

Substrate in data set [2]: Nc1ncnc2c1ncn2[C@@H]1O[C@H](COP(=O)(O)OP(=O)(O)O[C@H]2O[C@H](CO)[C@@H](O)[C@H](O)[C@H]2O)[C@@H](O)[C@H]1O
The data set is described as follows: ADPGlc kinetics of starch synthase SSI-1. Type of data set: biochemical, maize. The note with it: other: −citrate, 5 mg/ml amylopectin as primer, 37° C. The source says: (§1) FIG. 58. SSI-1, SSI-2, and SSI-3 construct design. Three forms of SSI were constructed in the pET expression (see Methods). pExs10a encodes SSI-1, the full length maize SSI (583 amino acids) which has the N-terminal sequence CVAELSREGP (SEQ ID NO:64). pExs8 encodes a truncated SSI, SSI-2, with amino acids # 8-52 deleted from the N-terminus of SSI-1 and which has the N-terminal sequence CVAELSR/DLG (SEQ ID NO:65). pExs1d encodes the most truncated form of SSI, SSI-3, with the first 93 amino acids deleted from SSI-1 and which has the N-terminal sequence SIVFVTGE (SEQ ID NO:66). A depiction of the waxygene, encoding GBSS, which has the N-terminal sequence ASAGMNW (SEQ ID NO:67), is also included for comparison. The amino acid motif KS/TGGL (SEQ ID NO:9), the putative binding site for ADGPGlc, in indicated by the triangles. The KS/TGGL (SEQ ID NO:9) motif is located 18 amino acids from the N-terminus in GBSS, while the motif is 106 amino acids from the N-terminus in maize SSI. Drawing not to scale.
(§2) 5 mL of supernatant were used to assay STS and SBE activities as previously described (Preiss) with minor modification. […] The unincorporated [^14C]-ADPGlc was separated with Dowex anion exchange column (200-400 mesh, Sigma Chemical Co.). […] SBE activity was determined by phosphorylase stimulation assay. One unit of activity is defined as 1 mmol Glc incorporated into the a-glucan per min at. […]

Substrate in data set [3]: Nc1ncnc2c1ncn2[C@@H]1O[C@H](COP(=O)(O)OP(=O)(O)O[C@H]2O[C@H](CO)[C@@H](O)[C@H](O)[C@H]2O)[C@@H](O)[C@H]1O
The data set is described as follows: purified protein, by the assay type. The note with it: other: −citrate, 5 mg/ml amylopectin as primer, 37° C.

Substrate in data set [4]: Nc1ncnc2c1ncn2[C@@H]1O[C@H](COP(=O)(O)OP(=O)(O)O[C@H]2O[C@H](CO)[C@@H](O)[C@H](O)[C@H]2O)[C@@H](O)[C@H]1O
As to the kind of experiment: ADPGlc kinetics of starch synthase SSI-3. The data set is classed as biochemical, maize. The note with it: other: −citrate, 5 mg/ml amylopectin as primer, 37° C.
Description: as §1, §2

Substrate in data set [5]: Nc1ncnc2c1ncn2[C@@H]1O[C@H](COP(=O)(O)OP(=O)(O)O[C@H]2O[C@H](CO)[C@@H](O)[C@H](O)[C@H]2O)[C@@H](O)[C@H]1O
The data set is described as follows: ADPGlc kinetics of starch synthase SSIIb-2. Type of data set: biochemical, maize. The note with it: 37° C. The source says: FIG. 60. SSIIb-1 and SSIIb-2 construct diagram. Two forms of SSIIb were constructed in the pET expression system (see Methods). pExs9 encodes SSIIb-1 which has the N-terminal sequence GSVGAALRS (SEQ ID NO:70), the putative full-length maize SSIIb which has the N-terminal sequence AAAPAGEE (SEQ ID NO:2). […] A depiction of the waxy gene, encoding GBSS which has the N-terminal sequence ASAGMNVV (SEQ ID NO:67), is also included for comparison. The amino acid motif KTGGL (SEQ ID NO:10), the putative binding site for ADPGlc, is indicated by the triangles. The KTGGL (SEQ ID NO:10) motif is located 18 amino acids from the N-terminus in GBSS, while the motif is 158 amino acids from the N-terminus in maize SSIIb.
5 mL of supernatant were used to assay STS and SBE activities as previously described (Preiss) with minor modification. […] […] The unincorporated [^14C]-ADPGlc was separated with Dowex anion exchange column (200-400 mesh, Sigma Chemical Co.). […] SBE activity was determined by phosphorylase stimulation assay. One unit of activity is defined as 1 mmol Glc incorporated into the a-glucan per min at. 30° C.
For the recombinant SS purification, the cell pellet was resuspended in sonication buffer (50 mM Tris-acetate, pH 7.5, 10 mM EDTA, and 5 mMDTT; 7 ml buffer per gram of cell mass), and cells were lysed using a Fisher 550 Sonic Dismembrator with 5×1 min. bursts with 30 sec. intervals. The homogenate was centrifuged at 9600 g for 30 minutes. SSI in the supernatant was then precipitated by slowly adding neutralized saturated ammonium sulfate to 40% saturation. After stirring on ice for an additional 50 minutes, proteins were collected by centrifugation at 12500 g for 45 minutes. The protein pellet was then redissolved in buffer A (50 mM Tris, pH 5.5, 1 mM EDTA, and 5 mM DTT) containing 0.1 M KCl and dialyzed against the same buffer, with one change of buffer. After dialysis, the sample was centrifuged at 13000 g for 20 minutes to remove insoluble materials. The resulting supernatant was loaded onto […] pre-equilibrated with dialysis buffer, and the flow through was collected. The column was washed with 10 column volumes of buffer a containing 0.1 M KCl, and then with buffer A containing 0.5 M KCl and 0.5 M maltose, collecting fractions during both washes. The active fractions were pooled and dialyzed overnight against buffer A, with one change of buffer. The next day, the amylase column sample was filtered and applied to a mono Q 5/5 FPLC column (Pharmacia). After washing with buffer A, a 20 ml 0-0,4 M KCl gradient was employed. […]

B1: maize starch synthase SSIIb-1, putative full-length SSIIb (637 amino acids), N-terminus … (SEQ ID NO:70) (Zea mays) (protein)
chain: AAAPAGGESEEAAKSSSSSQAGAVQGSTAKAVDSASPPNPLTSAPKQSQSAAMQNGTSGGSSASTAAPVSGPKADHPSAPVTKREIDASAVKPEPAGDDARPVESIGIAEPVDAKADAAPATDAAASAPYDREDNEPGPLAGPNVMNVVVVASECAPFCKTGGLGDVVGALPKALARRGHRVMVVIPRYGEYAEARDLGVRRRYKVAGQDSEVTYFHSYIDGVDFVFVEAPPFRHRHNNIYGGERLDILKRMILFCKAAVEVPWYAPCGGTVYGDGNLVFIANDWHTALLPVYLKAYYRDNGLMQYARSVLVIHNIAHQGRGPVDDFVNFDLPEHYIDHFKLYDNIGGDHSNVFAAGLKTADRVVTVSNGYMWELKTSEGGWGLHDIINQNDWKLQGIVNGIDMSEWNPAVDVHLHSDDYTNYTFETLDTGKRQCKAALQRQLGLQVRDDVPLIGFIGRLDHQKGVDIIADAIHWIAGQDVQLVMLGTGRADLEDMLRRFESEHSDKVRAWVGFSVPLAHRITAGADILLMPSRFEPCGLNQLYAMAYGTVPVVHAVGGLRDTVAPFDPFNDTGLGWTFDRAEANRMIDALSHCLTTYRNYKESWRACRARGMAEDLSWDHAAVLYEDVLVKAKYQW
notes: N-terminus printed as both … and AAAPAGEE
Usually Km stands for the concentration of substrate that gives half-maximal velocity. For the protein B1, in data set [1] (other: with amylopectin), the Km turned out to be 400 ± 20 µM and the Vmax was 72.8 ± 2.8 μmol min^−1 mg^−1 protein. In addition, in data set [1] (other: with glycogen), the Km is 710 ± 10 µM and the Vmax amounted to 76.8 ± 3.2 μmol min^−1 mg^−1 protein.

B2: maize starch synthase SSI-1 (STSI-1), full length SSI (583 amino acids), N-terminus CVAELSREGP (SEQ ID NO:64) (Zea mays) (protein)
chain: CVAELSREGPAPRPLPPALLAPPLVPGFLAPPAEPTGEPASTPPPVPDAGLGDLGLEPEGIAEGSIDNTVVVASEQDSEIVVGKEQARAKVTQSIVFVTGEASPYAKSGGLGDVCGSLPVALAARGHRVMVVMPRYLNGTSDKNYANAFYTEKHIRIPCFGGEHEVTFFHEYRDSVDWVFVDHPSYHRPGNLYGDKFGAFGDNQFRYTLLCYAACEAPLILELGGYIYGQNCMFVVNDWHASLVPVLLAAKYRPYGVYKDSRSILVIHNLAHQGVEPASTYPDLGLPPEWYGALEWVFPEWARRHALDKGEAVNFLKGAVVTADRIVTVSKGYSWEVTTAEGGQGLNELLSSRKSVLNGIVNGIDINDWNPATDKCIPCHYSVDDLSGKAKCKGALQKELGLPIRPDVPLIGFIGRLDYQKGIDLIQLIIPDLMREDVQFVMLGSGDPELEDWMRSTESIFKDKFRGWVGFSVPVSHRITAGCDILLMPSRFEPCGLNQLYAMQYGTVPVVHATGGLRDTVENFNPFGENGEQGTGWAFAPLTTENMFVDIANCNIYIQGTQVLLGRANEARHVKRLHVGPCR
Consider B2, for which the Michaelis-Menten constant (Km) in data set [2] worked out at 240 ± 20 µM.

B3: maize starch synthase SSI-2 (STSI-2), N-terminally truncated SSI, amino acids 8-52 of SSI-1 deleted, N-terminus CVAELSR/DLG (SEQ ID NO:65) (Zea mays; DEL47-91) (protein)
chain: CVAELSRDLGLEPEGIAEGSIDNTVVVASEQDSEIVVGKEQARAKVTQSIVFVTGEASPYAKSGGLGDVCGSLPVALAARGHRVMVVMPRYLNGTSDKNYANAFYTEKHIRIPCFGGEHEVTFFHEYRDSVDWVFVDHPSYHRPGNLYGDKFGAFGDNQFRYTLLCYAACEAPLILELGGYIYGQNCMFVVNDWHASLVPVLLAAKYRPYGVYKDSRSILVIHNLAHQGVEPASTYPDLGLPPEWYGALEWVFPEWARRHALDKGEAVNFLKGAVVTADRIVTVSKGYSWEVTTAEGGQGLNELLSSRKSVLNGIVNGIDINDWNPATDKCIPCHYSVDDLSGKAKCKGALQKELGLPIRPDVPLIGFIGRLDYQKGIDLIQLIIPDLMREDVQFVMLGSGDPELEDWMRSTESIFKDKFRGWVGFSVPVSHRITAGCDILLMPSRFEPCGLNQLYAMQYGTVPVVHATGGLRDTVENFNPFGENGEQGTGWAFAPLTTENMFVDIANCNIYIQGTQVLLGRANEARHVKRLHVGPCR
Consider B3, for which the Km in data set [3] is 250 ± 40 µM.

B4: maize starch synthase SSI-3 (STSI-3), N-terminally truncated SSI, first 93 amino acids of SSI-1 deleted, N-terminus SIVFVTGE (SEQ ID NO:66) (Zea mays) (protein)
chain: SIVFVTGEASPYAKSGGLGDVCGSLPVALAARGHRVMVVMPRYLNGTSDKNYANAFYTEKHIRIPCFGGEHEVTFFHEYRDSVDWVFVDHPSYHRPGNLYGDKFGAFGDNQFRYTLLCYAACEAPLILELGGYIYGQNCMFVVNDWHASLVPVLLAAKYRPYGVYKDSRSILVIHNLAHQGVEPASTYPDLGLPPEWYGALEWVFPEWARRHALDKGEAVNFLKGAVVTADRIVTVSKGYSWEVTTAEGGQGLNELLSSRKSVLNGIVNGIDINDWNPATDKCIPCHYSVDDLSGKAKCKGALQKELGLPIRPDVPLIGFIGRLDYQKGIDLIQLIIPDLMREDVQFVMLGSGDPELEDWMRSTESIFKDKFRGWVGFSVPVSHRITAGCDILLMPSRFEPCGLNQLYAMQYGTVPVVHATGGLRDTVENFNPFGENGEQGTGWAFAPLTTENMFVDIANCNIYIQGTQVLLGRANEARHVKRLHVGPCR
Turning to B4, in data set [4], the Km is 620 ± 40 µM.

B5: maize starch synthase SSIIb-2, N-terminally truncated SSIIb, first 144 amino acids deleted (492 amino acids), N-terminus MNVVVVASE (SEQ ID NO:71) (Zea mays) (protein)
chain: MNVVVVASECAPFCKTGGLGDVVGALPKALARRGHRVMVVIPRYGEYAEARDLGVRRRYKVAGQDSEVTYFHSYIDGVDFVFVEAPPFRHRHNNIYGGERLDILKRMILFCKAAVEVPWYAPCGGTVYGDGNLVFIANDWHTALLPVYLKAYYRDNGLMQYARSVLVIHNIAHQGRGPVDDFVNFDLPEHYIDHFKLYDNIGGDHSNVFAAGLKTADRVVTVSNGYMWELKTSEGGWGLHDIINQNDWKLQGIVNGIDMSEWNPAVDVHLHSDDYTNYTFETLDTGKRQCKAALQRQLGLQVRDDVPLIGFIGRLDHQKGVDIIADAIHWIAGQDVQLVMLGTGRADLEDMLRRFESEHSDKVRAWVGFSVPLAHRITAGADILLMPSRFEPCGLNQLYAMAYGTVPVVHAVGGLRDTVAPFDPFNDTGLGWTFDRAEANRMIDALSHCLTTYRNYKESWRACRARGMAEDLSWDHAAVLYEDVLVKAKYQW
For B5, the results for the Km in data set [5] (other: with amylopectin) and in data set [5] (other: with glycogen) were 320 ± 30 µM and 320 ± 40 µM, respectively. In addition, the Vmax in data set [5] (other: with amylopectin) came out at 90.9 ± 4.2 μmol min^−1 mg^−1 protein; in data set [5] (other: with glycogen), 130 ± 6 μmol min^−1 mg^−1 protein.
